Reference: patent US20250270280A1

Legend:
[1] = molecular target: PA4C/H2-D^b (PA peptide with cysteine at position 4 presented by H2-D^b) (mouse; human)
[2] = molecular target: PA/H2-D^b (influenza Polymerase Acidic peptide … presented by H2-D^b) (mouse; human)
[3] = molecular target: PA4C7L/H2-D^b (mouse; human)
[4] = molecular target: PA4C7A/H2-D^b (mouse; human)
[5] = molecular target: PA4C7K/H2-D^b (mouse; human)
[6] = molecular target: PA4C7L/H2-D^b (mouse; human); remark: listed apart in the source
[7] = molecular target: PA4C/H2-D^b (PA peptide with cysteine at position 4 presented by H2-D^b) (mouse; human); remark: listed apart in the source
[8] = molecular target: PA4C7A/H2-D^b (mouse; human); remark: listed apart in the source
[9] = molecular target: PA/H2-D^b (influenza Polymerase Acidic peptide … presented by H2-D^b) (mouse; human); remark: listed apart in the source
[10] = molecular target: PA4C7K/H2-D^b (mouse; human); remark: listed apart in the source

Substance: 6218 TCR expressed on cells
- IL-2 in supernatant (ELISA), 5KC T cells with CD8αβ and the TCR + DC2.4 cells + graded peptide: EC50 [panel PA4C] [1]: 49 nM
- IL-2 in supernatant (ELISA), 5KC T cells with CD8αβ and the TCR + DC2.4 cells + graded peptide: EC50 [panel PA] [2]: 50 nM
- IL-2 in supernatant (ELISA), 5KC T cells with CD8αβ and the TCR + DC2.4 cells + graded peptide: EC50 [left graph] [3]: > 50000 nM
- IL-2 in supernatant (ELISA), 5KC T cells with CD8αβ and the TCR + DC2.4 cells + graded peptide: EC50 [left graph] [4]: > 50000 nM
- IL-2 in supernatant (ELISA), 5KC T cells with CD8αβ and the TCR + DC2.4 cells + graded peptide: EC50 [left graph] [5]: > 50000 nM
- tetramer MFI / TCRβ MFI, normalized to 6218 TCR-PA/H2-D^b [6]: 0.03
- tetramer MFI / TCRβ MFI, normalized to 6218 TCR-PA/H2-D^b [7]: 1.03
- tetramer MFI / TCRβ MFI, normalized to 6218 TCR-PA/H2-D^b [8]: 0.16
- tetramer MFI / TCRβ MFI, normalized to 6218 TCR-PA/H2-D^b [9]: 1
- tetramer MFI / TCRβ MFI, normalized to 6218 TCR-PA/H2-D^b [10]: 0.33
